Test results: patent US20160220655A1 (BOARD OF REGENTS FOR OKLAHOMA STATE UNIVERSITY, published 2016)

Target: T1, SipB (recombinant, His-tag technology, expressed in E. coli) (Salmonella, UniProt Q56019 1-593)
T1 construct: also called first 'translocator' protein SipB from SPI-1
T1 sequence: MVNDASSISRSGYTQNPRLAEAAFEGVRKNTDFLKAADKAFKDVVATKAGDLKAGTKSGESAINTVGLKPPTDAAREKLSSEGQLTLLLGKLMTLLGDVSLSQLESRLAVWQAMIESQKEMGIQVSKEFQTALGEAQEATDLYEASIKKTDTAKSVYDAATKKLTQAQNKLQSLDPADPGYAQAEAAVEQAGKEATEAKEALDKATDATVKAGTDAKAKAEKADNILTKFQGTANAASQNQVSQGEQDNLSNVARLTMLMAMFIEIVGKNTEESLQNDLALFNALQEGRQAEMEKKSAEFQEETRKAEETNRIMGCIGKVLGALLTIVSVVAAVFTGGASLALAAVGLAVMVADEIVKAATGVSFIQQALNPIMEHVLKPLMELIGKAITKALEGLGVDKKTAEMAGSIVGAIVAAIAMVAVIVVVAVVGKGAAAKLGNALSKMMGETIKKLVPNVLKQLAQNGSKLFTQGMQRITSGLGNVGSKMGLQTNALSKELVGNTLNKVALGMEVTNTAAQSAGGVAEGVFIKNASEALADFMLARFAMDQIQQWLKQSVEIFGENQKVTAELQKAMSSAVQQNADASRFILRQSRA
Experiment: co-expression in E. coli and co-purification by column chromatography

B1: SicA, cognate chaperone of SipB (other)
chain: MDYQNNVSEERVAEMIWDAVSEGATLKDVHGIPQDMMDGLYAHAYEFYNQGRLDEAETFFRFLCIYDFYNPDYTMGLAAVCQLKKQFQKACDLYAVAFTLLKNDYRPVFFTGQCQLLMRKAAKARQCFELVNERTEDESLRAKALVYLEALKTAETEQHSEQEKE
**Q.** Does B1 bind?
**A.** Result: binds
